In publication doi:10.1101/2025.11.08.687396 (bioRxiv, 2025):
Each block holds one binder with its values, some of them ahead of it.

B1: UBXN7-SBP (natural protein, human, UniProt O94888 1-489, looked up)
chain: MAAHGGSAASSALKGLIQQFTTITGASESVGKHMLEACNNNLEMAVTMFLDGGGIAEEPSTSSASVSTVRPHTEEEVRAPIPQKQEILVEPEPLFGAPKRRRPARSIFDGFRDFQTETIRQEQELRNGGAIDKKLTTLADLFRPPIDLMHKGSFETAKECGQMQNKWLMINIQNVQDFACQCLNRDVWSNEAVKNIIREHFIFWQVYHDSEEGQRYIQFYKLGDFPYVSILDPRTGQKLVEWHQLDVSSFLDQVTGFLGEHGQLDGLSSSPPKKCARSESLIDASEDSQLEAAIRASLQETHFDSTQTKQDSRSDEESESELFSGSEEFISVCGSDEEEEVENLAKSRKSPHKDLGHRKEENRRPLTEPPVRTDPGTATNHQGLPAVDSEILEMPPEKADGVVEGIDVNGPKAQLMLRYPDGKREQITLPEQAKLLALVKHVQSKGYPNERFELLTNFPRRKLSHLDYDITLQEAGLCPQETVFVQERN
notes: human UBXN7, wild type; also called SBP-tagged version of UBXN7; homolog of Ubx5; source: E. coli BL21 CodonPlus (DE3) RIPL, purified (Ni-NTA, SEC); not shown: SBP, C-terminal, kept

Tests used:
Details in all cases: both partners purified
human Npl4 = molecular target: T1, human Npl4 (human, UniProt Q8TAT6 1-608); test: pull-down; UBXN7-SBP on streptavidin agarose with p97, human UN, Yod1-C160S and Ub(n)-TAIL, 1 μM each, SEC buffer, 5 mM ATPγS, 1 h, 4°C, eluted with 2 mM biotin; Coomassie-blue staining
T1 construct: human Npl4; Used as the human UN complex with hUfd1; also called hNpl4; Npl4 of the human UN complex; source: purified
T1 sequence (Q8TAT6 whole entry): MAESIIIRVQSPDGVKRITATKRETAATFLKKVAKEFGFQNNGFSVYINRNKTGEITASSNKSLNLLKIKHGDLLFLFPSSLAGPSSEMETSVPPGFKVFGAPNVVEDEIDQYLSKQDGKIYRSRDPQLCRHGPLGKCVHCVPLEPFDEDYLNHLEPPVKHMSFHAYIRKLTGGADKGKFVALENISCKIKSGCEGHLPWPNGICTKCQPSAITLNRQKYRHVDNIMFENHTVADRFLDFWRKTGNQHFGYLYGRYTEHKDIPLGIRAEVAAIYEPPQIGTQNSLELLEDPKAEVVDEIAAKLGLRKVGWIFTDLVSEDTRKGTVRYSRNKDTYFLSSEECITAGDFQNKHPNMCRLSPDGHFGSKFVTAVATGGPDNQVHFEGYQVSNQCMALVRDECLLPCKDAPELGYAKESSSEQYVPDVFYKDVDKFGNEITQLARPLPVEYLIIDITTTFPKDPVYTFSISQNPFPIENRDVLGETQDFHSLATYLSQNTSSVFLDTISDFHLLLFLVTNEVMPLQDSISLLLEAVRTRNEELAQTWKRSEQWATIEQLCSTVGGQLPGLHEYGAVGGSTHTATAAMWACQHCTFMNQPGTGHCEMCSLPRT

human p97 ATPase = molecular target: T2, human p97 ATPase (human, UniProt P55072 1-806); test: as above
T2 construct: human p97 (VCP), wild type; pET28 with N-terminal His6-tag and a TEV-protease cleavage site; also called VCP; homolog of Cdc48; source: E. coli BL21 CodonPlus (DE3) RIPL, purified (Ni-NTA, SEC)
T2 sequence (P55072 whole entry): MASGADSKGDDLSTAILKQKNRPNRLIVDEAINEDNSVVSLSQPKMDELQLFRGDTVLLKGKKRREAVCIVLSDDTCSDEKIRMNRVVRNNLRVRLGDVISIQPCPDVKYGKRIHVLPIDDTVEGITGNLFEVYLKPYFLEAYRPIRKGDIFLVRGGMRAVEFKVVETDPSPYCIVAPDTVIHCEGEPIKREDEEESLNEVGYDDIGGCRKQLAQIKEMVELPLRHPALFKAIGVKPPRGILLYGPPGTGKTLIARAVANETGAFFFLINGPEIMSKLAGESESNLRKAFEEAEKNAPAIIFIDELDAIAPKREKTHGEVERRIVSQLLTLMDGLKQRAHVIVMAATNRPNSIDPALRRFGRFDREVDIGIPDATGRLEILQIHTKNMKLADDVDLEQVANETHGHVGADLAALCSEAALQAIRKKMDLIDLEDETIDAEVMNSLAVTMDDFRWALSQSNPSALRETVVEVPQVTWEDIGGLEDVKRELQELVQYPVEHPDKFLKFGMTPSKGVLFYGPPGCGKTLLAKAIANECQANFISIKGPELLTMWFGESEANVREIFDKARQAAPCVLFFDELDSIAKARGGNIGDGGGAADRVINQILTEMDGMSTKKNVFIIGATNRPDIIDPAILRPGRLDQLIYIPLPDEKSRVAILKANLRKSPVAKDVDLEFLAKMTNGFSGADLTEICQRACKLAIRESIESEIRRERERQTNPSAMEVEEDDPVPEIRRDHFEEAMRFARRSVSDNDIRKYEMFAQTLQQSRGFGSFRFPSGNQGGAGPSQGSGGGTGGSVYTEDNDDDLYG

UBXN7-SBP = molecular target: B1; test: as above
Cdc48 = molecular target: T3, Cdc48 (yeast (S. cerevisiae), UniProt P25694 1-835); test: pull-down; Otu1-C120S-FLAG on anti-FLAG M2 agarose with Cdc48, UN and Ub(n)-TAIL, with or without Ubx5, 1 μM each, SEC buffer, 5 mM ATPγS, 1 h, 4°C; fluorescence scanning and Coomassie-blue staining
T3 construct: Cdc48 ATPase of yeast, wild type; pET28 with N-terminal His6-tag and a TEV-protease cleavage site; also called Cdc48 ATPase; wild-type (WT) Cdc48; source: E. coli BL21 CodonPlus (DE3) RIPL, purified (Ni-NTA, SEC)
T3 sequence (P25694 whole entry): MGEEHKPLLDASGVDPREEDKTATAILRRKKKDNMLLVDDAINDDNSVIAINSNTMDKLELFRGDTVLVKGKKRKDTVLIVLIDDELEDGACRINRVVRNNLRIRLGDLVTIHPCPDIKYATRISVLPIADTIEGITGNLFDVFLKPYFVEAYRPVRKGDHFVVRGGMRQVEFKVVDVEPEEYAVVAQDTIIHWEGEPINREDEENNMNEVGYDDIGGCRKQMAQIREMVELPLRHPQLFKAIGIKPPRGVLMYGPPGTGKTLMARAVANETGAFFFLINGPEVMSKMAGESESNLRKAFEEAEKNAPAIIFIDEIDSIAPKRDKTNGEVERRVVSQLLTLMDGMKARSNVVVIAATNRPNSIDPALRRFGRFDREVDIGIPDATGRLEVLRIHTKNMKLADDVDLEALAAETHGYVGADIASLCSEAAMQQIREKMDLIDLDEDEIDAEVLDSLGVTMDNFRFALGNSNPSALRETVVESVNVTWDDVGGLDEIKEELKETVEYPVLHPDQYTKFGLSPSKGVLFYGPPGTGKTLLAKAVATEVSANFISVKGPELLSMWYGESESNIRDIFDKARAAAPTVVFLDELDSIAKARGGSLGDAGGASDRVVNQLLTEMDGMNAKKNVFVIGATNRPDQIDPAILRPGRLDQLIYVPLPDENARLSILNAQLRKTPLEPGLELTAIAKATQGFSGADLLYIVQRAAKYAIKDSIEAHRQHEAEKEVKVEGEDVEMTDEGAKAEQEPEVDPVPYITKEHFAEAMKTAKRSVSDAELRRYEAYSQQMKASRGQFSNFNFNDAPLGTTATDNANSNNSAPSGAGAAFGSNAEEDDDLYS

Ufd1-Npl4 (UN) complex = molecular target: T4, Ufd1-Npl4 (UN) complex (yeast (S. cerevisiae), UniProt P53044 1-361; P33755 1-580); test: as above
T4 construct: Ufd1 of yeast; Npl4 of yeast; The methods call the complex untagged; the plasmids are described as Ufd1 with an N-terminal His14-SUMO tag and Npl4 with a C-terminal His6 or FLAG-His6 tag; also called untagged Ufd1/Npl4 (UN) complex; source: bacterial expression
T4 sequence 1: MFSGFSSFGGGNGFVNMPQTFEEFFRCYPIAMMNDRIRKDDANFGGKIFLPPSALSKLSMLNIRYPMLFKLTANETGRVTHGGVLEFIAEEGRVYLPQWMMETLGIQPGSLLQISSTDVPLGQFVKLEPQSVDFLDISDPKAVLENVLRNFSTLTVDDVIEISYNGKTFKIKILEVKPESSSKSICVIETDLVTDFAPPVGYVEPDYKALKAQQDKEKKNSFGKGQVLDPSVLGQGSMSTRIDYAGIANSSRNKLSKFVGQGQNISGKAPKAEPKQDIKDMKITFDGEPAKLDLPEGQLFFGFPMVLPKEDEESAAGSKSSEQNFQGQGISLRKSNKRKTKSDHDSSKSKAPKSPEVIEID
T4 sequence 2: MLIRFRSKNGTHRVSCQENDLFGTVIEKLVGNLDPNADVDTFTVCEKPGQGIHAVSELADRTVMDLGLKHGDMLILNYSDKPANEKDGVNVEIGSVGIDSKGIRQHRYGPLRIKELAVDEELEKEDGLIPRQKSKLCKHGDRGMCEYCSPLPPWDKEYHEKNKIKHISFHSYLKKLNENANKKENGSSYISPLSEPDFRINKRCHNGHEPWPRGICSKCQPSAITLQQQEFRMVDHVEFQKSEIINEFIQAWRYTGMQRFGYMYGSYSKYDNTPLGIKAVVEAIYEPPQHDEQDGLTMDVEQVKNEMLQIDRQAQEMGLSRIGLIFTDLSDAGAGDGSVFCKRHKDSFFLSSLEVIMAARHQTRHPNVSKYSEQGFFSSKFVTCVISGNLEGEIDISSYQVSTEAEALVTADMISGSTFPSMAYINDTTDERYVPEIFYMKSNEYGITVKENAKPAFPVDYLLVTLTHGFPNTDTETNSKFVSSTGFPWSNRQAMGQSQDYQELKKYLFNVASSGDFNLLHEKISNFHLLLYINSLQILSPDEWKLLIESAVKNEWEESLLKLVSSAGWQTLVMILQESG

Binder: B1
- binding result (human Npl4): binds
- binding result (human p97 ATPase): binds

- binding result (UBXN7-SBP): binds
B2: Yod1-C160S (enzyme, human, UniProt Q5VVQ6 1-348, looked up)
chain: MFGPAKGRHFGVHPAPGFPGGVSQQAAGTKAGPAGAWPVGSRTDTMWRLRCKAKDGTHVLQGLSSRTRVRELQGQIAAITGIAPGGQRILVGYPPECLDLSNGDTILEDLPIQSGDMLIIEEDQTRPRSSPAFTKRGASSYVRETLPVLTRTVVPADNSSLFTSVYYVVEGGVLNPACAPEMRRLIAQIVASDPDFYSEAILGKTNQEYCDWIKRDDTWGGAIEISILSKFYQCEICVVDTQTVRIDRFGEDAGYTKRVLLIYDGIHYDPLQRNFPDPDTPPLTIFSSNDDIVLVQALELADEARRRRQFTDVNRFTLRCMVCQKGLTGQAEAREHAKETGHTNFGEV
notes: human deubiquitinating enzyme Yod1 with C160S; also called homolog of Otu1; source: E. coli BL21 CodonPlus (DE3) RIPL, purified (Ni-NTA, SEC)

- binding result (Cdc48): binds
- binding result (Ufd1-Npl4 (UN) complex): binds
B3: Otu1-C120S-FLAG (enzyme, S. cerevisiae, UniProt P43558 1-301, looked up)
chain: MKLKVTGAGINQVVTLKQDATLNDLIEHINVDVKTMRFGYPPQRINLQGEDASLGQTQLDELGINSGEKITIESSDSNESFSLPPPQPKPKRVLKSTEMSIGGSGENVLSVHPVLDDNSSLFHAIAYGIFKQDSVRDLREMVSKEVLNNPVKFNDAILDKPNKDYAQWILKMESWGGAIEIGIISDALAVAIYVVDIDAVKIEKFNEDKFDNYILILFNGIHYDSLTMNEFKTVFNKNQPESDDVLTAALQLASNLKQTGYSFNTHKAQIKCNTCQMTFVGEREVARHAESTGHVDFGQNR
notes: deubiquitinating enzyme Otu1 of yeast with C120S; pET28: N-terminal His6-tag, TEV-protease cleavage site, then a FLAG tag; source: E. coli BL21 CodonPlus (DE3) RIPL, purified (Ni-NTA, SEC); not shown: FLAG, N-terminal, kept
